The text below walks through data of PMC11542851 (PLOS Pathogens, 2024).

To fix the notation:
B1: C68.327 (antibody, V domains shown)
VH: EVQLLESGGGLVQPGGSLRLSCAASGFTFGSYAMSWVRQAPGKGLEWVSAISGSGGSTYYADSVKGRFTISRDNSKNTLYLQMNSLRAEDTAVYNCAKDLWDGFHWFDSWGQGTLVTVSS
VL: DIQMTQSPSSVSASVGDRVTITCRASQGISSWLAWYQQKPGKAPNLLIYSASSLQSGVPSRFSGSGSGTDFTLTISSLQPEDFATYYCQQANSFPITFGQGTRLEIK
B2: C68.88 (antibody, V domains shown)
VH: QVQLQESGPGLVKPSETLSLTCSVSGGPISSSRYYWGWIRQSPGEGLEWIGTIYYSGSTYYNPSFKSRVTISVDTSKNQFSLKLSSVTAADTAVYYCATRCYDFWSGYYNREMLWFDCWGQGTLVTVSS
VL: NFMLTQPHSVSESPGKTVTISCTRSSGSIASNYVQWYQQRPGSSPTTVIYENNQTPSGVPDRFSGSIDSSSNSASLTISGLKTEDEADYYCQSYDSSVVVFGGGTKLTVL
B3: C68.175 (antibody, V domains shown)
VH: EVQLLESGGGLVQPGGSLRLSCAASGFTFSSYAMSWVRQAPGKGLEWVSGISGSGGSTYYADSVKGRFTISRDNSKNTLHLQMNSLRAEDTAVYYCAKGSRWNPDYFDYWGQGTLVTVSS
VL: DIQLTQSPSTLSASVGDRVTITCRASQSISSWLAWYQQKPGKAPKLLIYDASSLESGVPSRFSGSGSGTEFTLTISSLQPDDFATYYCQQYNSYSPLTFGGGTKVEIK
B4: C68.83 (antibody, V domains shown)
VH: EVQLVESGGGVVQPGRSLRLSCAASGFIFSSYGMHWVRQAPGKGLEWVAVIWYDGSNKYYADSVKGRFTISRDNSKNTLYLQMNSLRAEDTAVYYCARDDPEVGCSGGSCYYYYDMDVWGQGTTVTVSS
VL: SYELTQPPSVSVSPGQTARITCSGDALPKQHAHWYQQKPGQAPVLVIYKDIERPSGIPERFSGSSSGTTVTLTISGVQAEDEADYYCQSADSSVTYVVFGGGTKLTVL
B5: C68.203 (antibody, V domains shown)
VH: EVQLLESGGGLVQPGGSLRLSCTASGFTFSRYALTWVRQAPGKGLECVSAFSGSGDSTYYADSVKGRFTISRDNSKNTLYLQMNSLRAEDTAVYYCAKSPRYNSDYFDFWGQGTLVTVSS
VL: DIQLTQSPSTLSASVGDRVTITCRASQSISSWLAWYQQKPGKAPKLLIYDASSLESGVPSRFSGSGSGTEFTLTISSLQPDDFATYYCQQYNSFITFGQGTRLEIK
B6: C68.200 (antibody, V domains shown)
VH: EVQLLESGGGLVQPGGSLRLSCTASGFTFSRYALTWVRQAPGKGLEWVSAISGSGGNTNYADSVKGRFTISRDNSKNTLYLQMNSLRAEDTAVYYCAKSPRYNNDYFDFWGQGTLVTVSS
VL: DIQLTQSPSTLSASVGDRVTITCRASQSISSWLAWYQQKPGKAPKLLIYDASSLESGVPSRFSGSGSGTEFTLTISSLQPDDFATYYCQQYNTFITFGHGTRLEIK
B7: C68.183 (antibody, V domains shown)
VH: EVQLLESGGGLVQPGGSLRLSCVASGFTFRNFAMSWVRQAPGKGLEWVSAISGSGDSTYYADSVKGRFTISRDNSKNTLYLQVNSLRVEDTAIYYCAKGSRGSTDYFDSWGQGTLVTVSS
VL: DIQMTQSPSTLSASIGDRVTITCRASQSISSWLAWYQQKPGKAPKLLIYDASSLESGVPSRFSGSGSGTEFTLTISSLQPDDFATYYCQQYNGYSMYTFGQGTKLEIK
B8: C68.348 (antibody, V domains shown)
VH: QVQLQESGPRLVKSSGTLSLTCAVSGGSISSSKWWSWVRQPPGKGLEWIGEVYHGGSTNYNPSLKSRVTISVDKAKNQFSLKLSSVTAADSAVYYCASLDSAAVFDYWGQGTLVTVSS
VL: QSALTQPASVSGSPGQSITISCTGTSSDVGRFNYVSWYQQHPGKAPKLLIYDVSNRPSGVSNRFSGSKSGNTASLTISGLQAEDEADYYCNSYTSSSTLYVFGTGTKVTVL
B9: C68.121 (antibody, V domains shown)
VH: EVQLVESGGGLVKPGGSLRLSCAASGFTFSDYYMTWIRQAPGKGLEWVSKITNSNSYTHYADSVKGRFTISRDNAKNSLFLHMNSLRAEDTAVYYCARAIWIGYPDDYYMDVWGKGTTVTVSS
VL: SYELTQPPSVSVSPGQTARITCSGDTLPNQYVYWYQQKPGQAPVLLIYKDTERPSGIPERVSGSTSGTTVTLTISGVQAEDEADYYCQSADSSGTSFGGGTKLTVL
B10: C68.285 (antibody, V domains shown)
VH: QVQLVQSGAEVKKPGASVKVSCKASGYTFSNYFMHWVRQAPGQGLEWMGIINPSGVSTSYAQKFQGRITMTRDTSTSTVYMELSSLRSEDTAVYYCAFEMGAAPFDYWGQGTLVTVSS
VL: DIQLTQSPSFLSASVGDRVTITCRASQGISSYLAWYQQKPGKAPKVLIYDASTLQSGVPSRFSGSGSGTEFTLTISSLQPEDFATYYCQQLNTYPQGLTFGGGTKVEIK
B11: C68.286 (antibody, V domains shown)
VH: QSTLKESGPALVKPTQTLTLTCTFSGFSLSTSGMCVSWIRQPPGKALEWLARIDWDDDKYYSTSLETRLTISKDTSKNQVVLTMTNMDPVDTATYYCARMTVAGPSLDYWGQGTLVTVSS
VL: not shown
B12: C68.279 (antibody, V domains shown)
VH: EVQLVQSGAEVKKPGESLKISCKGSGYSFNYYWIGWVRQMPGKGLEWMGIIYPGDSDARYSPSFQGQVTISADKSISTAYLQWSSLKASDTAMYYCGRLVGYSHDLYFDYWGQGTLVTVSS
VL: not shown
B13: C68.256 (antibody, V domains shown)
VH: QVQLQESGPGLVKPSETLSLTCSVSGGSISSSSSYWGWIRQPPGKGLEWIGNIDYSGSTYYNPSLKSRVTISVDTSKNQFSLKLSSVTAADTAVYFCARGADYGPYFDYWGQGALLTVSS
VL: QSALTQPASVSGSPGQSITISCTGTSSDVGSYNLVSWYQHHPGKAPKLMIYEVSKRPSGVSNRLSGSKSGNTASLTISGLQAEDEADYYCSSYAGSSTFVVFGGGTKLTVL
B14: C68.304 (antibody, V domains shown)
VH: EVQLVESGGGVVQPGRSLRLSCAASGFIFSNYDMHWVRQAPGKGLEWVAVIWYDGSNKYYADSVKGRFTISRDNSKNTLYLQMNSLRADDTAMYYCSRHDSGTYYYFDSWGQGTLVTVSS
VL: LTVVTQEPSFSVSPGGTVTLTCGLSSGSVSTSYYPSWYQQTPGQPPRTLIYTTITRSSGVPDRFSGSILGNKAALTITGAQGDDESDYYCVLYMGSGNWVFGGGTKLTVL
B15: C68.225 (antibody, V domains shown)
VH: EVQLVQSGAEVKKPGESLRISCKGSGYSFTNYWISWVRQMPGKGLEWMGRIDPSDSYTDYSPSFQGHVTISTDKSISTAYLQWSSLKASDTAMYYCARPRGIAAVGTGYNWLDPWGQGTLVIVSS
VL: DIQMTQSPSTLSASVGDRVTITCRASQSINSWLAWYQQKPGKAPKLLIYDASSLESGVPSRFSGSGSGTEFTLTISSLQPADFATYYCQQYNALYTFGQGTKLEIK
B16: C68.281 (antibody, V domains shown)
VH: QVQLVQSGAEVRKPGASVKVSCKASGYNFTSYYMHWVRQAPGQGLEWMGIINPSDGSASYAQKFQGRVTMTRDSSTSTVYMELSSLRSDDTAVYFCARGGRILQWFPYFFDYWGQGTLVTVSS
VL: EIVLTQSPGTLSLSPGERATLSCRASQSVSIRYLAWYQQKPGQAPRLLIYGASSRATGIPDRFSGSGSGTDFTLTISRLEPEDFAVYYCQQYETFGQGTKVEIK
B17: C68.194 (antibody, V domains shown)
VH: QVQLVQSGAELKRPGASVKVSCKAPGHTFTIYAMHWVRQAPGQRPEWMGWINAGNGDTKYSQKFQGRVTITRDTSASTAYMELSSLRSEDTAVYYCATSGSLRFQVDYFDHWGQGTLVTVSS
VL: DIQLTQSPSTLSASVGDRVTITCRASQSISSWLAWYRQKPGKAPKLLIYDASNLESGVPSRFSGSGSGTEFTLTISSLQPDDFATYYCQQYNSYPWTFGQGTKVEIK
B18: C68.236 (antibody, V domains shown)
VH: QVQVVQSGAELKKPGASVKVSCKAPGHTFTIYAMHWVRQAPGQRLEWMGWINAGNGDTKYSQKFQGRVTITRDTSASTAYMELSSLRSEDTAVYYCASSGSRRFQVDYFDYWGQGTLVTVSS
VL: DIQLTQSPSTLSASVGDRVTITCRASQSIRSWLAWYQQKPGKAPKLLIYDASSLESGVPSRFSGSGSGTEFTLTISSLQPDDFATYYCQQYNSYPWTFGQGTKVEIK
B19: C68.220 (antibody, V domains shown)
VH: QVQLLQSGAEVKKPGASVKVSCKASGYTFTIYAMHLVRQAPGQRLEWMGWINTGNGDTKYSQKFQGRVTITRDTSASTAYMELSSLRSEDTAVYYCAISGSRHFQVDYFDYWGQGTLVTVSS
VL: DIQMTQSPSTLSASVGDRVTITCRASQSISRWLAWYQQKPGKAPKLLIYDASSFESGVPSRFSGRGSGTEFTLTISSLQPDDFATYYCQQYKSYPWTFGQGTKVEIK
B20: C68.263 (antibody, V domains shown)
VH: EVQLVESGGGVVQPGRSLRLSCAASGFTFSTYAMHWVRQAPGKGLEWVAVISFDGSNTYYADSVKGRFTISRDNSKNTLYLQMNSLRAEDTAVYYCAKDSYYSDRSDYYWRSYGYFGLWGQGTLVTVSS
VL: DIQLTQSPSTLSASVGDRVTITCRASQSISSWLAWYQQKPGKAPKLLIYDASSLESGVPSRFSGSGSGTEFTLTISSLQPDDLATYYCQQYRSYSGTFGQGTKVEIK
B21: C68.61 (antibody, V domains shown)
VH: EVQLVQSGAEVKKPGESLKISCKGSAYIFTRYWIGWVRQMPGKGLEWMGIIYPGDSDTRYSPSFQGQVTISADKSISTAYLQWSSLKASDTAMYYCARSGTTNYFDYWGQGTLVTVSS
VL: DIQLTQSPSTLSASVGDRVTITCRASQSISSWLAWYQQKPGKAPKLLIYDASSLDSGVPSRFSGSGSGTDFTLTISSLQPDDFATYYCQQFNSYWTFGQGTKVEIK

The target of one assay is T1, SARS-CoV-2 RBD subunit (recombinant) (SARS-CoV-2 Wuhan-Hu-1, UniProt P0DTC2).
T1 construct: source: bought: Sino Biologics
The experiment in a line: ELISA. The following applies: both partners purified.
In the case of B1, the binding result was “binds”.

For the molecule B2, the binding result was “binds”.

Consider B3, for which the binding result is given as “binds”.

On to B4, for which the binding result is “binds”.

B5: the binding result is “binds”.

For the molecule B6, the binding result is given as “binds”.

Regarding B7, the binding result was “binds”.

Regarding B8, the binding result was “binds”.

Turning to B9, the binding result was “binds”.

For another assay, the target named is T1, SARS-CoV-2 RBD subunit (recombinant).
Assay: not given
Details: not given
As for B10, the binding result is recorded as “binds”.

On to B11, for which the binding result is on record as “binds”.

On to B12, for which the binding result is reported as “binds”.

Take B13: the binding result is recorded as “binds”.

Regarding B14, the binding result was “binds”.

Turning to B15, the binding result was “binds”.

B16: the binding result is on record as “binds”.

Take B17: the binding result was “binds”.

For B18, the binding result is recorded as “binds”.

Consider B19, for which the binding result is reported as “binds”.

For the molecule B20, the binding result is “binds”.

The target in a further assay is RsSHC014 RBD, yeast-displayed (Bat SARS-like coronavirus RsSHC014, UniProt U5WLK5). The experiment in a line: flow cytometry on cells. The following applies: one partner purified.
Consider B2, for which the binding result is “binds”.

On to B21, for which the binding result is given as “binds”.

Turning to B7, the binding result is “binds”.
